Data: patent US12018081B1, “Photoconjugation reactions for modification of specific proteins on live cells” (The Regents of the University of Colorado, a body, priority 2019, dated 2024)
One block for each molecule: values may come before it.

Columns and labels:
[1] = test system: MDA-MB-468 cells; type: cell-based, human; conditions: drug or prodrug only, no protein, FIG. 4
Protocol: Finally, having established both the photocrosslinking of the […] affibody-enzyme to EGFR on living cells and retention of protein expression before and after endocytosis, the enzymatic activity of the fusion proteins was then leveraged for cell killing by prodrug conversion. […] Next, prodrug therapy experiments were run against MDA-MB-468 cells in vitro. In 96-well plates, cells were incubated with 1 μM of WT-CodA, N23-CodA, or CodA alone. As before, after 3 h the cells were irradiated with 365 nm light for 30 min followed by further incubation to a total time of 8, 24, or 48 h. When each time point was reached, the excess affibody-enzymes were removed by washing the cells three times with PBS, and 2 mM of 5-FC was added. […] After 12 h incubation with 5-FC, excess pro-drug was removed, cells were washed with PBS, and viability was measured by MTT assay. […]
Prodrug Cytotoxicity (MTT) Assays: The MDA-MB-468 cells were grown to confluence, after which the cells were washed once with DPBS (Gibco) and then trypsinized with 0.025% trypsin-EDTA (Gibco). […] The crystals were dissolved in 100 μL isopropyl alcohol (IPA), and absorbance from the wells was measured at 570 nm in a Tecan Safire II Multimode Plate reader. The readings were then normalized to the cells that were treated with neither enzyme, enzyme-affibody, nor 5-FC/5-FU to calculate the fractional viability. […]

[2] = molecular target: EGFR expressed on live MDA-MB-468 human breast carcinoma cells (human) (UniProt P00533); assay: cell-based or functional assay
[3] = molecular target: Extracellular domain of purified human EGFR (Sino Biological) (human) (UniProt P00533); assay: microscale thermophoresis, AF647-labelled soluble EGFR, fusion protein titrated
[4] = Affibody-enzyme kinetic activity assay with cytosine (UV-Vis); type: biochemical; conditions: 50 nM enzyme, cytosine 100-250 μM, 50 mM Tris-HCl pH 7.5
Protocol: Affibody-enzyme Kinetic Activity Assays with Cytosine: The enzymatic assay for N23-CodA, WT-CodA, and CodA were performed by varying substrate concentration and measuring the absorbance using a UV-VIS spectrophotometer (Agilent Technologies, Cary Series 100). A stock of 10 mM cytosine was prepared in 50 mM Tris-HCl at pH 7.5. Varying concentrations (250, 200, 150 and 100 μM) of cytosine solution were prepared from the stock and mixed with 50 nM of the enzyme and enzyme-affibodies. The reaction was run for 15 min with OD267 (cytosine) and OD260 (uracil) readings taken every 12 s. The concentration of cytosine was calculated for each time point and the kinetic parameters KM and kcat were calculated using the methods of initial rates and double reciprocal plots.

[5] = reported value for free CodA; cited from earlier work

Molecule: O=c1[nH]cc(F)c(=O)[nH]1 [5-FU, 5-fluorouracil]
- baseline viability (cell viability fraction) [1]: 0.467

Molecule: Nc1nc(=O)[nH]cc1F [5-FC, 5-fluorocytosine]
- baseline viability (cell viability fraction) [1]: 0.854

- Kd [3]: 44 nM
Molecule: BP-modified mutant affibody-enzyme (N23C ZEGFR:1907 affibody with benzophenone, fused to cytosine deaminase) (from UniProt P25524 2-427) (designed binder)
- cell viability of MDA-MB-468 cells by MTT assay after 5-FC prodrug [2]: 50 to 55%

- Kd [3]: 25 nM
Molecule: WT affibody-fused CodA (ZEGFR:1907 affibody fused to cytosine deaminase) (from UniProt P25524 2-427) (designed binder)

B1: CodA: Cytosine deaminase, bacterial enzyme of E. coli, alone without affibody (protein, UniProt P25524 2-427, looked up)
Cytosine deaminase: SNNALQTIINARLPGEEGLWQIHLQDGKISAIDAQSGVMPITENSLDAEQGLVIPPFVEPHIHLDTTQTAGQPNWNQSGTLFEGIERWAERKALLTHDDVKQRAWQTLKWQIANGIQHVRTHVDVSDATLTALKAMLEVKQEVAPWIDLQIVAFPQEGILSYPNGEALLEEALRLGADVVGAIPHFEFTREYGVESLHKTFALAQKYDRLIDVHCDEIDDEQSRFVETVAALAHHEGMGARVTASHTTAMHSYNGAYTSRLFRLLKMSGINFVANPLVNIHLQGRFDTYPKRRGITRVKEMLESGINVCFGHDDVFDPWYPLGTANMLQVLHMGLHVCQLMGYGQINDGLNLITHHSARTLNLQDYGIAAGNSANLIILPAENGFDALRRQVPVRYSVRGGKVIASTQPAQTTVYLEQPEAIDYKR
- Km [4]: 2520 µM
- kcat [4]: 53.57 s⁻¹
- melting temperature, reported value [5]: 85 °C
